# Data as given in PMC12309361.
# Read-outs that look alike come from different tables or passages of the source.
# Columns and labels:
# [1] = target: Pol III alpha CBM (Escherichia coli); conditions: cited from earlier work
# [2] = target: PolC CBM sequence (QLSLF) peptide with the flanking amino acids from DnaE, fluorescein-labelled (B. subtilis); experiment: fluorescence polarisation; direct binding: B. subtilis DnaN in 3-fold serial dilution from 50 μM, 20 nM fluorescein-labelled peptide; 20 mM Tris-HCl pH 7.5, 100 mM NaCl, 5 mM BME, 10% glycerol, 0.1% pluronic acid F-68; fit to a 1:1 binding model
# [3] = target: WT PolC CBM peptide (QLSLF) with flanking amino acids from PolC, fluorescein-labelled (B. subtilis); experiment: as above
# [4] = target: WT PolC CBM peptide (QLSLF) with flanking amino acids from PolC, fluorescein-labelled (B. subtilis); experiment: as above; remark: listed apart in the source
Kd [2],Kd [3],Kd [4],Substance,Kd [1]
–,–,–,DnaN clamp (from UniProt P0A988),0.8 µM
7.2 µM,3.8 µM,3.9 µM,"B. subtilis DnaN (sliding clamp), N-terminally His6-tagged (from UniProt P05649 1-378) (natural protein)",–
